Reference: publication PMC7556403

What was measured:
[1] = target: MBP-APO1 mXT (dimeric form) M46A;R48S;I80T;W121A;L173A;W199A;F205A;del1-14 (human) (UniProt P41238); experiment: EMSA; details: no A1CF; dimeric form; 50 nM nucleic acid, 20 mM HEPES, 50 mM NaCl, 5 mM DTT, 10% glycerol (0.4 U RNase inhibitor for RNA), pH not stated for EMSA (HEPES pH 7.5 in protein buffers) …
[2] = target: MBP-APO1 mXT (aggregated form) M46A;R48S;I80T;W121A;L173A;W199A;F205A;del1-14 (human) (UniProt P41238); experiment: EMSA; details: no A1CF; aggregated form; weaker than WT; 50 nM nucleic acid, 20 mM HEPES, 50 mM NaCl, 5 mM DTT, 10% glycerol (0.4 U RNase inhibitor for RNA), pH not stated for EMSA (HEPES pH 7.5 in protein buffers) …

GGAUAUAUGAUACAAUUUGAUCAGUAUAUUAAAGAUAGUUAUGAUUUACAUGAUU [APOB RNA 55 nt]
Kd [1]: 140 nM
Kd [2]: 460 nM
